From patent publication US20090298772A1 (UNIVERSITY OF CHICAGO, published 2009)

T1: menin (endogenous, 293 cell lysate) (UniProt O00255 1-610)
T1 construct: Endogenous protein of transfected 293 cells (a human cell line); Co-immunoprecipitated with FLAG-MLL 1-330; also called endogenous menin; product of the MEN1 tumor suppressor gene
T1 sequence (looked up): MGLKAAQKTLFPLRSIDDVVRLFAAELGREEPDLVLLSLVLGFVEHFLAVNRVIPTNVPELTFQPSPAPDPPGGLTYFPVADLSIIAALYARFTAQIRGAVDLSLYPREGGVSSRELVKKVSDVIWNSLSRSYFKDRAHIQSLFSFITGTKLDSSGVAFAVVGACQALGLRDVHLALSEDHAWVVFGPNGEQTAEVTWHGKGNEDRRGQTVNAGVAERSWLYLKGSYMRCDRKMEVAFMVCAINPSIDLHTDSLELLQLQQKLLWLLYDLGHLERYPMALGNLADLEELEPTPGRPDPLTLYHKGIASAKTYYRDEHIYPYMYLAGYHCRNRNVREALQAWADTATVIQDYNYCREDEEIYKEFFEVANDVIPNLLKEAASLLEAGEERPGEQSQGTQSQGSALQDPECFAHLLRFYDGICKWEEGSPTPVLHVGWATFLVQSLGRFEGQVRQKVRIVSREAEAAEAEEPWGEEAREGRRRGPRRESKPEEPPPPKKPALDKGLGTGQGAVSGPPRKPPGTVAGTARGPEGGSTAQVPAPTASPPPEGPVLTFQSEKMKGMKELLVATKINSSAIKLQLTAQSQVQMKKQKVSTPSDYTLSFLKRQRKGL


Target: T1, menin (endogenous, 293 cell lysate)
Assay: competition with FLAG-MLL 1-330 for endogenous menin, co-IP / Western blot (FIG. 1); binding to menin shown only by blocking
Text: Cell lysates were immunoprecipitated with anti-FLAG antibody (Sigma), separated by SDS-PAGE and blotted with an anti-menin antibody (Bethyl Laboratories Inc. or Santa-Cruz).

Binder | binding result
MAHSCRWRFPARPGTTGGGGGGGRRG (Synthetic peptide) [MLL peptide 1-26] | binds
MAHSCRWRFPARPG (Synthetic peptide) [MLL peptide 1-14] | binds
MAHSCRWRFPARPGTTGGGGGGGRRGLGGG (Synthetic peptide) [MLL peptide 1-30] | binds
CRWRFPARPGTTGG (Synthetic peptide) [MLL peptide 5-18] | binds
SCRWRFPARPG (Synthetic peptide) [MLL peptide 4-14] | binds
MAHSCRWRFPARPGTTGGGGGG (Synthetic peptide) [MLL peptide 1-22] | binds
AHSCRWRFPARPGTTGG (Synthetic peptide) [MLL peptide 2-18] | binds
CRWRFPARPG (Synthetic peptide; also called MLL peptide 5-14) [MLL 5-14 peptide] | binds
HSCRWRFPARPGTTGG (Synthetic peptide) [MLL peptide 3-18] | binds
MAHSCRWRFPARPGTTGG (Synthetic peptide) [MLL peptide 1-18] | binds
AHSCRWRFPARPG (Synthetic peptide) [MLL peptide 2-14] | binds
SCRWRFPARPGTTGG (Synthetic peptide) [MLL peptide 4-18] | binds
MAHSCRWRFPARP (Synthetic peptide) [MLL peptide 1-13] | binds
HSCRWRFPARPG (Synthetic peptide) [MLL peptide 3-14] | binds
